The text below walks through data of patent publication US20170355773A1 (PELICAN THERAPEUTICS, published 2017).

The target of assay [1] is T1, W330-cAb1.hIgG1(35783).
T1 construct: Parent hamster anti-TNFRSF25 antibody made chimeric with human IgFc (hIgG1); also called chimeric anti-TNFRSF25 antibody; chimeric parent antibody
Put plainly: ELISA: coated antibody at 5 ug/ml, TNFRSF25 ECD.hFcHis titrated, detection with anti-his-HRP, absorbance at 450 nm; the concentration is that of the TNFRSF25 fusion.

The target in assay [2] is T2, TNFRSF25-Fc protein (UniProt Q93038 25-199, biotinylated in the capture ELISA).
T2 construct: also called TNFRSF25-Fc fusion protein; biotinylated antigen protein
T2 sequence (looked up): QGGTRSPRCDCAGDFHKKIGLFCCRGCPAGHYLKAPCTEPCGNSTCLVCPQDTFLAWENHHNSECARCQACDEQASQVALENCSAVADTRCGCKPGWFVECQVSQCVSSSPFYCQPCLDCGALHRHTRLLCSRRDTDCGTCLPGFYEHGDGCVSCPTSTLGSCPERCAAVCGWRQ
Put plainly: capture ELISA: scFv captured on anti-c-myc antibody, biotinylated TNFRSF25-Fc, streptavidin-HRP, OD450.

B1: WBP330-hPro1.ECD.hFcHis (non-mutated) (Fc fusion)
chain: QGGTRSPRCDCAGDFHKKIGLFCCRGCPAGHYLKAPCTEPCGNSTCLVCPQDTFLAWENHHNSECARCQACDEQASQVALENCSAVADTRCGCKPGWFVECQVSQCVSSSPFYCQPCLDCGALHRHTRLLCSRRDTDCGTCLPGFYEHGDGCVSCPTSTLGSCPERCAAVCGWRQMF
notes: also called recombinant TNFRSF25 polypeptide; non-mutated WBP330-hPro1.ECD.hFcHis; not shown: human Fc and 6His tag (hFc-6His)
B1 displayed a 50% effective concentration (EC50) in assay [1] of 4.76 µg/mL.

B2: 9A5 (combinatorial scFv clone of W3072-z4C12) (scFv, V domains shown)
VH: EVQLVESGGGLSQPGNSLQLSCEASGFTFSNHDLNWVRQAPGKGLEWVAYISSASGLISYADAVRGRFTISRDNAKNSLFLQMNNLKSEDTAMYYCARDPAYTGLYALDFWGQGTQVTVSS
VL: QPVLTQSPSASASLSGSVKLTCTLSSELSGFTIVWYQQRPDKAPKYVMYLKSDGSHSKGDGIPDRFSGSSSGAHRYLSISNVQSEDDATYFCGAGYTLANQYGWVFGSGTKVTVL
On to B2, for which the “EC50 (read off the curve)” value in assay [2] was roughly 0.08 µg/mL.

B3: 4B6 (scFv, V domains shown)
VH: EVQLVESGGGLSQPGNSLQLSCEASGFTFSNHDLNWVRQAPGKGLEWVAYISSASGLISYADAVRGRFTISRDNAKNSLFLQMNNLKSEDTAMYYCARDPAYTGLYALDFWGQGTQVTVSS
VL: QPVLTQSPSASASLSGSVKLTCTLSSELSNYTIVWYQQRPDKAPKYVMYLKSDGSHSKGDGIPDRFSGSSSGAHRYLSISNVQSEDDATYFCGAGYTLANQYGWVFGSGTKVTVL
Turning to B3, the “EC50 (read off the curve)” value in assay [2] was roughly 0.2 µg/mL.
